Entries after “also recorded” stand apart in the source; their conditions may differ.

This assay deals with myofibers. Nature of the assay: Bleb formation and intracellular Ca2+ fluorescence (GCaMP5G, Fluo-4) after laser injury with annexin overexpression. The class given is cell-based, mouse. The settings on record: for internal GCaMP5G Ca2+ fluorescence at the site of injury: vs GCaMP5G alone. On the procedure:
(§1) Electroporation, myofiber isolation, laser injury, cap and vesicle measurement. Flexor digitorum brevis (FDB) fibers were transfected with endo-free plasmid DNA by in vivo electroporation. Methods were described previously in (Demonbreun and McNally, 2015; Demonbreun et al., 2016b; DiFranco et al., 2009). Z-stack projections were acquired from consecutive acquisitions after the final time-lapse frame, approximately 4 minutes post damage, with a […] step size between slices. Z-stack renderings were constructed in FIJI. Measurement of the cap area and feret diameter were conducted from a single slice near the middle of the z-stack using FIJI imaging tools. Fibers expressing similar levels of tagged or GCaMP5G protein were compared. GCaMP5G Ca^2+ fluorescence was measured from the acquired timelapse images, using a standard rectangular ROI, placed inside the myofiber below the site of damage using FIJI. Fluorescence was expressed as F/F0. External vesicle number and GCaMP5G area were measured from endpoint z-stacks and max projection images using FIJI. Vesicles were considered external if they were found outside the sarcolemma assessed in brightfield and fluorescent channels. All measurements were acquired from myofibers isolated from at least n≥3 mice, n≥3 myofibers per mouse.
as §1, with “(Demonbreun A R, Quattrocelli M, Barefield D Y, Allen M V, Swanson K E,” for “(Demonbreun”, “McNally E M. An actin-dependent annexin complex mediates plasma membrane repair in muscle. The Journal of cell biology. 2016; 213(6):705-18; Demonbreun A R, and McNally E M. DNA Electroporation, Isolation and Imaging of Myofibers. Journal of visualized experiments: JoVE.” for “McNally,”, “106(106):e53551;” for “Demonbreun et al., 2016b;”, “M, Quinonez M, Capote J, and Vergara J. DNA transfection of mammalian skeletal muscles using in vivo electroporation. Journal of visualized experiments: JoVE. 2009; 32(32)).” for “et al., 2009).”
Calcium and pH indicator dye measurements. Wildtype FDBs were isolated and plated in Ringers on Matek glass-bottom dishes as described above. Twenty minutes prior to imaging, myofibers were loaded with Fluo-4 AM at 37° C. (F10489, ThermoFisher Scientific, Waltham, Mass.) or pHrodo AM (P35373, ThermoFisher Scientific, Waltham, Mass.) as described in the instruction manual. Fibers were rinsed once with Ringers then subsequently damaged and imaged on the Nikon A1R GaSP, as described above. Fluorescence intensity was measured using FIJI (NIH). phRodo change in fluorescence intensity was calculated as F/F0. Data was acquired from n=3 mice per experiment from multiple myofibers per mouse. […]

B1: annexin A6: annexin A6 with carboxyl-terminal turboGFP or tdTomato tag, expressed from plasmid electroporated into myofibers (protein, UniProt P14824 2-673, looked up)
Annexin A6: AKIAQGAMYRGSVHDFPEFDANQDAEALYTAMKGFGSDKESILELITSRSNKQRQEICQNYKSLYGKDLIEDLKYELTGKFERLIVNLMRPLAYCDAKEIKDAISGVGTDEKCLIEILASRTNEQMHQLVAAYKDAYERDLESDIIGDTSGHFQKMLVVLLQGTRENDDVVSEDLVQQDVQDLYEAGELKWGTDEAQFIYILGNRSKQHLRLVFDEYLKTTGKPIEASIRGELSGDFEKLMLAVVKCIRSTPEYFAERLFKAMKGLGTRDNTLIRIMVSRSELDMLDIREIFRTKYEKSLYSMIKNDTSGEYKKALLKLCGGDDDAAGQFFPEAAQVAYQMWELSAVSRVELKGTVCAANDFNPDADAKALRKAMKGIGTDEATIIDIVTHRSNAQRQQIRQTFKSHFGRDLMADLKSEISGDLARLILGLMMPPAHYDAKQLKKAMEGAGTDEKTLIEILATRTNAEIRAINEAYKEDYHKSLEDALSSDTSGHFRRILISLATGNREEGGENRDQAQEDAQVAAEILEIADTPSGDKTSLETRFMTVLCTRSYPHLRRVFQEFIKKTNYDIEHVIKKEMSGDVKDAFVAIVQSVKNKPLFFADKLYKSMKGAGTDEKTLTRVMVSRSEIDLLNIRREFIEKYDKSLHQAIEGDTSGDFMKALLALCGGED
modifications: C-terminal turboGFP or tdTomato tag
notes: annexin A6 with carboxyl-terminal turboGFP or tdTomato tag, expressed from plasmid electroporated into myofibers
For B1, the “internal Fluo-4 Ca2+ fluorescence at the site of membrane injury” value (annexin A6 overexpression vs control myofibers) was “Reduction; also recorded: significantly decreased”. In addition, the “size of GCaMP5G-containing blebs” value (annexin overexpression vs annexin A1, A2 or GCaMP5G alone) is “significantly larger”. The “number of extracellular (GCaMP5G-positive) blebs at the membrane lesion” value (annexin overexpression vs annexin A1 overexpression or GCaMP5G alone) is “significantly more blebs”. Moreover, the “internal GCaMP5G Ca2+ fluorescence at the site of injury” value is, setting by setting: (first 20 seconds post injury) “significant reduction”; (over 240 seconds of imaging) “most significant reduction”; (over 240 seconds of imaging, listed as A6) “significant reduction”.

(Values after patent publication US20220143136A1, “USE OF ANNEXINS IN PREVENTING AND TREATING MUSCLE MEMBRANE INJURY” (NORTHWESTERN UNIVERSITY, priority 2018, published 2022).)
